In article PMC8699212, “Mechanism of Zn^2+ and Ca^2+ Binding to Human S100A1” (Biomolecules, 2021):

Target: the molecule itself
Assay: dynamic light scattering (DLS); 50 µM S100A1, 37 °C, without divalent metal ions or with 0.5-10 mM Ca2+ or Zn2+; hydrodynamic diameter (volume distribution); monomer to dimer

B1: S100A1 (natural protein, human)
chain: GSELETAMETLINVFHAHSGKEGDKYKLSKKELKELLQTELSGFLDAQKDVDAVDKVMKELDENGDGEVDFQEYVVLVAALTVACNNFFWENS
modifications: N-formylmethionine (fMet) at the N-terminus
notes: theoretical mass 10,545.5 Da, measured 10,571.2 ± 1.4 Da (fMet at the N-terminus); also called recombinant S100A1; human S100A1; source: residual Ca2+ removed
Q: B1 was tested. Which “stoichiometry N” value did it give?
A: 2
